Experimental data: PMC5910400

Target: CXCL8 (human)

B1: P1156 (evasin from Ixodes ricinus), purified, C-terminal StrepII:His tag (natural protein)
chain: DGGADDDNELFTVQYCGMNCTKDEGGTWTGCTGKKEGCKCYHESGKNYGLCLSTEYTDFSQYGNPSDSEIEAAKPKRSDTLSH
B1 showed a mean IC50 (three biological replicates) of inhibition of primary human granulocyte migration induced by the EC80 dose of CXCL8 of 1.8e-09 M.
